Patent publication US20230417748A1 (GREEN CROSS, published 2023)

Biological target: SARS-CoV-2 spike protein (SARS-CoV-2, UniProt P0DTC2 14-1213)

B1: M4-4 (antibody, V domains shown)
VH: EVQLVESGGGLVKPGGSLRLSCAASGFTFSSRGMSWVRQAPGKGLEWVSTISFGDIYTYYPDSVKGRFTISRDNAKNSLYLQMNSLRAEDTAVYYCARPNDGYFDYWGQGTLVTVSS
VL: DIVMTQSPATLSVSPGERATLSCKASQDVSTDVAWYQQKPGQAPRLLIYWASTRHTGVPDRFSGSGSGTDFTLTISSLQSEDFAVYYCQQHYSTPWTFGGGTKVEIKR
dissociation constant against REGN10933 and REGN10987: ~10 fold
